Data published in patent US20250057968A1, “ANTI-DLL3 ANTIBODY AND PHARMACEUTICAL USE THEREOF, AND ANTIBODY-DRUG CONJUGATE CONTAINING ANTI-DLL3 ANTIBODY” (Jiangsu Hengrui Pharmaceuticals Co., Ltd., priority 2021, published 2025).

T1: Human DLL1 full-length protein on CHO-s cells (human, UniProt O00548 18-723)
T1 construct: also called human DLL1/CHO-s
T1 sequence: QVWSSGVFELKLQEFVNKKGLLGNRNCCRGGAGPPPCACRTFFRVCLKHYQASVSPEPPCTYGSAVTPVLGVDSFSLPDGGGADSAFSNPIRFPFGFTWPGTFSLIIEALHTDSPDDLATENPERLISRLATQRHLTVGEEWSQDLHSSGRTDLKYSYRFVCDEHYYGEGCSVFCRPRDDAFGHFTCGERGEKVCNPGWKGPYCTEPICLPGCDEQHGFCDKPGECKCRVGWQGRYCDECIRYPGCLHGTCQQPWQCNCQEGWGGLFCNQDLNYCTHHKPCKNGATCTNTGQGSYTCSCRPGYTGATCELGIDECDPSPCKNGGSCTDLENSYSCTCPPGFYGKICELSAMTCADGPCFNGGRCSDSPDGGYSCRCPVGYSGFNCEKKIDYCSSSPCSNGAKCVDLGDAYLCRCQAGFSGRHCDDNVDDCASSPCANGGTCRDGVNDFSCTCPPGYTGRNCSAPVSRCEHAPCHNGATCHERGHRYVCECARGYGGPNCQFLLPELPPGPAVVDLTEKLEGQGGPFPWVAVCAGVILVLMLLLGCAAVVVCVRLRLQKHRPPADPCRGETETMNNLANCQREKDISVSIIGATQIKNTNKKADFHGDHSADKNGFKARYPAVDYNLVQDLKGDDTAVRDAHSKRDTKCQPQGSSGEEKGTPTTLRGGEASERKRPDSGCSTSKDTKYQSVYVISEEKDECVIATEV

T2: Rat DLL3 full-length protein on CHO-s cells (rat, UniProt O88671 33-589)
T2 construct: also called RatDLL3/CHO-s; ratDLL3/CHO-s
T2 sequence: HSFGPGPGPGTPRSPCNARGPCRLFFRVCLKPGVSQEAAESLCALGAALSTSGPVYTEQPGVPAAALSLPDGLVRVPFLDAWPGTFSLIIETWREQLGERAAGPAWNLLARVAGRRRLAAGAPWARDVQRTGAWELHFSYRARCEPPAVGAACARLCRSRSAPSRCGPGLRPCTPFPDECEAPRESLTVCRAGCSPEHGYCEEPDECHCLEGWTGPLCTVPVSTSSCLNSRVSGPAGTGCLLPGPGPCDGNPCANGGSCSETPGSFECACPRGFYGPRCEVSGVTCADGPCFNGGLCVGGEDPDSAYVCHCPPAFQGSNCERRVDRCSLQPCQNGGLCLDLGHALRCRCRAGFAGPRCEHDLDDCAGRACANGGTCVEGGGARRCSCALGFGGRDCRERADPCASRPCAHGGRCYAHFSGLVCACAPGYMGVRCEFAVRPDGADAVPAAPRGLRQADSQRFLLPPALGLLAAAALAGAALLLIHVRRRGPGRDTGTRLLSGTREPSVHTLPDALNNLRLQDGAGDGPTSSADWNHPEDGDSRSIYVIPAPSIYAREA

T3: human DLL3 (ACRO, DLL3-H52H4) (human, UniProt Q9NYJ7 27-479)
T3 construct: bought antigen of the Biacore assay; construct not described
T3 sequence (looked up): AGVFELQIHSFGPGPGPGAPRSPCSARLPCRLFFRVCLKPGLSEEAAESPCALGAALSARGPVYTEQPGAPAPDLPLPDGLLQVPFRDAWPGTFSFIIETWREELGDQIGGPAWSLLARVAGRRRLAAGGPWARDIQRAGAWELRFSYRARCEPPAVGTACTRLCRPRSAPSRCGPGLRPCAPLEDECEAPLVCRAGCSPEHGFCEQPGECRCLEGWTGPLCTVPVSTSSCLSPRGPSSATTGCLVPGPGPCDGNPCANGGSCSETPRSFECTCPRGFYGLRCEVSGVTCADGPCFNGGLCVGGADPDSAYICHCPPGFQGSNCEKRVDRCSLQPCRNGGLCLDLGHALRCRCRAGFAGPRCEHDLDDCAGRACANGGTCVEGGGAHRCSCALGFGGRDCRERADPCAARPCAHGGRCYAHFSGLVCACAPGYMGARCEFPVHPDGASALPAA


Experiments:
[1] = target: T1, Human DLL1 full-length protein on CHO-s …; assay: FACS on human DLL1/CHO-s cells
Method: Stably transfected human DLL1/CHO-s and human DLL4/CHO-s cells were suspended at 1×10⁶/mL in FACS buffer (containing 1% BSA and pH 7.4 PBS), and the cell suspensions were added to a 96-well round-bottom plate (Corning, 3795) at 100 µL/well. The plate was centrifuged at 300 g for 5 min, and the supernatant was removed. Test antibodies were added at 100 μL/well, and the plate was incubated in the dark in a refrigerator at 4° C. for 1 h. After 3 washes by centrifugation at 300 g, working concentrations of PE F(ab′)2-goat anti-human IgG Fc secondary antibody (invitrogen, H10104) were added. The plate was incubated in the dark in a refrigerator at 4° C. for 40 min. After 3 washes by centrifugation at 300 g, the geometric mean fluorescence intensity was measured on an Invitrogen flow cytometer.

[2] = target: T2, Rat DLL3 full-length protein on CHO-s …; assay: FACS on RatDLL3/CHO-s cells
Method: Cells of the DLL3-expressing small cell lung cancer cell lines H1184 (ATCC, Cat. No. CRL-5858), DLL3/H82, cynoDLL3/CHO-s, and RatDLL3/CHO-s were suspended at 1×10^6/mL in FACS buffer (1% BSA+pH 7.4 PBS), and the cell suspensions were added to a 96-well round-bottom plate (Corning, 3795) at 100 μL/well. The plate was centrifuged at 300 g for 5 min, and the supernatant was removed. Different concentrations of test antibodies were added at 100 μL/well. The plate was incubated in the dark in a refrigerator at 4° C. for 1 h. After 3 washes by centrifugation at 300 g, working concentrations of APC anti-human IgG Fc (BioLegend, 410712) or PE F(ab′)2-goat anti-human IgG (invitrogen, H10104) were added. The plate was incubated in the dark in a refrigerator at 4° C. for 40 min. After 3 washes by centrifugation at 300 g, the geometric mean fluorescence intensity was measured on an Invitrogen flow cytometer, and the EC50 values of the antibodies in binding to DLL3-expressing cells were calculated.

[3] = target: T3, human DLL3 (ACRO, DLL3-H52H4); assay: SPR (Biacore 8K), antibody captured on Protein A chip, 1:1 fit
Source text: Test antibodies were affinity-captured with a Protein A biosensor chip (Cat. #29127556, Cytiva) for 18 seconds, and then the antigens human DLL3 (ACRO, DLL3-H52H4), cynomolgus monkey DLL3 (KACTUS, DLL-RM103), and mouse DLL3 (KACTUS, DLL-MM103) were allowed to flow over the surface of the chip for 180 seconds, followed by 600 seconds of dissociation. Reaction signals were detected in real time using a Biacore 8K (Cytiva) instrument to obtain association and dissociation curves. After the dissociation in each experimental cycle, the biosensor chip was washed and regenerated with a 10 mM glycine-hydrochloric acid solution (pH 1.5) (Cat. #BR-1003-54, Cytiva). A 1:1 model was fit to the data. The results are shown in Table 12-1, Table 12-2, and Table 12-3.

Row | Binder | binding result [1] | EC50 [2] | Kd [3] | binding result [2]
1 | Hu6 (antibody, human IgG1, kappa, V domains shown, also called hAb6L4H12) VH: EVQLVQSGSELKKPGASVKVSCKASGYTFTDYYMNWVRQAPGQGLEWMGIINPYSGVTIYNHKFKGRFALSVDKSSNTAYLQISSLKAEDTAVYYCARQDSLLDYAMDYWGQGTTVTVSS VL: DIQMTQSPSSLSASVGDRVTITCHASQGISGNMGWLQQKPGKAPKGLIYHGANLEDGVPSRFSGSGSGADYTLTISSLQPEDFADYYCVQYAQFPYTFGGGTKVEIKR | no binding | 1.42 nM | 0.594 nM | 
2 | Hu100 (antibody, human IgG1, kappa, V domains shown, also called hAb100L1H1) VH: EVQLVESGGGLVKPGGSLRLSCAASGFTFSDSGMHWIRQAPGKGLEWVSYISSGSSTIHYADTVKGRFTISRDNAKNSLYLQMNSLRAEDTAVYYCASPLYYYGRSYNAVAYWGQGTTVTVSS VL: DIQMTQSPSSLSASVGDRVTITCHASQNINVWLSWYQQKPGKVPKLLIYKASDLHTGVPSRFSGSGSGTDFTLTISSLQPEDVATYYCQQGQSYPLTFGGGTKVEIKR | no binding |  | 0.471 nM | no binding
